Data from the nanobody polyreactivity screen of Harvey et al. (2022).

Test: yeast display, Sf9 membrane polyspecificity reagent, FACS + sequencing; frameworks hold sequencing errors
Procedure, shortened: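 Nanobodies from a synthetic yeast display library (Saccharomyces cerevisiae BJ5465), induced 36–48 hours with galactose, were stained 1 hour at 4 °C with 10% biotinylated, detergent-solubilized Sf9 membrane reagent, enriched on streptavidin microbeads, then FACS-sorted. Anti-HA (expression) and streptavidin (reagent binding) fluorescence set low and high (top ~1%) gates. Polyreactivity labels come from the gate of origin. Genes were colony-PCR amplified, MiSeq 2 × 250 sequenced and filtered by CDR length.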

Sequence | polyreactivity (PSR sort gate)
QVQLVESGGGLVQAGGSLRLSCAASGSIFGNYAMGWYRQAPGKERELVAAITSSGGTYYADSVKGRFTISRDNAKNTVYLQMNSLKPEDTAVYYCAARYYSYRHQSVKYGYWGQGTQVTVSS | high polyreactivity
QVQLVESGGRLVQEGGSLRLSCAASGSTFKQYAMGWYRQAPGKEWELVAAISRSGSRTYYADSVKGRFTISRDNAKYTVYLQMNSLKPEDTAVYYCAAERRSTAGWLYDYWGQGTQVTVSS | high polyreactivity
QVQLVESGGGLVQAGGSLRLSCAASGRIFQRNAMGWYRQAPGKERELVAAITSTGVRTYYADSVKGRFTISRDNAKNTVFLQMNSLNPEDTAVYYCAVRGERRYYGSKEDYWGQGTQVTVSS | high polyreactivity
QVQLVESGGGLVQAGGSLRLSCAASGSIFTDYALAWYRQAPGKERELVATITWSDATTYYTDSVKGRFTISRDNAKNTVYLQMNSLKPEDTAVYYCARRSRYSKGYDYWGQGTQVTVSS | low polyreactivity
QVQLVESGGGLVQAGGSLRLSCAASGSIFYRYTMGWYRQAPGKERELVAGITFGAGTYYADSVKGRFTISRDNAKNTVYLQMNSLKPEDTAVYYCNAKHLPRHRDYWGQGTQVTVSS | low polyreactivity
QVQLVESGGGLVQAGGSLRLSCAASGRTFGGNAMGWYRQAPGKERELVATIRSSSSTNYADSVKGRFTISRDNAKNTVYLQMNSLKPEDTAVYYCARRSQRGIYSMYYWGQGSQVTVSS | low polyreactivity
QVQLVESGGGLVQAGGSLRLSCAASGYTFSAYAMGCYRQAPGKERELVASITRRRTNYAESVKGRFTISRDNAKNTVYLQMNSLKPEDTAVYYCAATNYVRQYATYDYWGQGTQVTVSS | high polyreactivity
QVQLVESGGGLVQAGGRLRLSCAASGRTFYTNTMGWYRQAPGKERELVAAISYSGSSTYYADSVKGRFTISRDNAKNTGYLQINSLKPEDTAVYYCNAVRYYRYYYWGQGTQVTVSS | low polyreactivity
QVQLVESGGGLVQAGGSLRLSCAASGFILWPYAMGWYRQEPGKERELVAAITTGGSTNYADSVKGRFTISRDNAKNTVYLQMNSLKPEDTAVYYCAKGYYFGYYEFDYWGQGTQVTVSS | high polyreactivity
QVQLVESVGGLVQAGGSLRLSCAASGRTFYRYAMGWYRPAPGKERELVAAITASGGSTYYADSVKGRFTISRDNAQNTVYLQMKSLKPEDTAVYYCAKGGKSRYSTWHGDYWGQGTQVTVSS | high polyreactivity
QVQLVESGGGLVQAGGSLRLSCAASGLIFRSNAMGWYRQAPGKERELVAAISGSGGRTYYADSVKGRFTISRDNANNTVYLQMNSLKPEDTAVYYCAGRWSYRQNGYWGQGTQVTVSS | high polyreactivity
QVQLVESGGGLVQAGGSLRLSCAASGRIFWQYAMGWYRQAPGKERELVAGITYRGGSTYYADSVKGRFTISRDNAKQTVYLLMNSLKPEDTAVYYCAADTYLSSQYSDRYGYDYWGQGTQVTVSS | high polyreactivity
QVQLVESVGVLVKAGGSLRLSCAASGRIYSSYALGWYRQAPGKEREFVAYISNSGGSTYYADSVKGRFTISRDNAKNTVYLQMNILKPEDTAVYYCAAAVYSYTYRYYYWGQGTQLTVSS | high polyreactivity
QVQLVESGGGLVQAGGSLRLSCAASGITFRYYAMGWYRQAPGKERELVAVISTSGGSTYYADSVKGRFTISRDNAKNTVFLQMNSLKPEDTAVYYCAVVWPYYERYYYWGQGTQVTVSS | high polyreactivity
QVQLVESGGGLVQAGGSLRLSCAASGRIFIRNAMGWYRQAPGKEREFVAAISYGGSTYYADSVKGRFTISRDNAKNTVYLQMNSLKPEDTAVYYCAARVLPYLTPRRQMYYWGQGTQVTVSS | low polyreactivity
QVQLVESGGGLVQAGGSLRLSCAASGSTFIFYAMGWYRQAPGKERELVAAISWSGGSTYYADSVKGRFTISRDNAKYTVYLQMNSLKPEDTAVYYCITLHRYSSERYDYWGQGTQVTVSS | high polyreactivity
QFQLVESVGGLVQAGGSLRLSCAASGRTFGNYAMGWYRQAPGKERELVAAISRSGGSTSYADSVKGRFTISRDNAKNTVYLQMNSLKPVDTAVYYCNAYFRGPRDYQYDYWGQGTQVTVSS | high polyreactivity
